# How the values were obtained:
# [1] = target: full-length human APLNR (hAPLNR) (human) (UniProt P35414); assay: FACS, secondary antibody alone on HEK293/CRE-luc/hAPLNR cells
# [2] = target: T1, full length cynomolgus APLNR (MfAPLNR) (cynomolgus (Macaca fascicularis)); assay: FACS, secondary antibody alone on HEK293/CRE-luc/MfAPLNR cells
# T1 sequence: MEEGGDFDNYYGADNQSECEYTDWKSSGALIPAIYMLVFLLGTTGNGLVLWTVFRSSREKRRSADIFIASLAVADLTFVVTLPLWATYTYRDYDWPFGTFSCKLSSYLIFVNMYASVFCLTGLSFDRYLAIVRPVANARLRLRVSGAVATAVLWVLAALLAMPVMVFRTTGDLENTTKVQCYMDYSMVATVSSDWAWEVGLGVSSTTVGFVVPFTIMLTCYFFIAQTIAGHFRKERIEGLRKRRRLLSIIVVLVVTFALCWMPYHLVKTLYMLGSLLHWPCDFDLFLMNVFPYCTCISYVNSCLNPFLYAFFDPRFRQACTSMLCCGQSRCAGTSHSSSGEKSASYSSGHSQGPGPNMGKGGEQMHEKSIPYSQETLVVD
# [3] = target: full-length human APLNR (hAPLNR) (human) (UniProt P35414); assay: FACS, secondary antibody alone (4 ug/mL) on HEK293/CRE-luc/hAPLNR cells
# [4] = target: T1, full length cynomolgus APLNR (MfAPLNR) (cynomolgus (Macaca fascicularis)); assay: FACS, secondary antibody alone (4 ug/mL) on HEK293/CRE-luc/MfAPLNR cells
Substance,Binding Ratio of Geom. Mean to Unstained Cells [1] [fold],Binding Ratio of Geom. Mean to Unstained Cells [2] [fold],Binding Ratio of Geom. Mean to Unstained Cells [3] [fold],Binding Ratio of Geom. Mean to Unstained Cells [4] [fold]
anti-human IgG antibody conjugated with Alexa 488 (secondary antibody alone),2,2,2,2
anti-mouse IgG antibody conjugated with Alexa 647 (secondary antibody alone),–,–,4,3

# Reference: patent publication US20190177410A1
